Laboratory results: patent US20230270832A1, “MAGEA1 IMMUNOGENIC PEPTIDES, BINDING PROTEINS RECOGNIZING MAGEA1 IMMUNOGENIC PEPTIDES, AND USES THEREOF” (TScan Therapeutics, Inc., priority 2021, published 2023)

Legend:
[1] = system: C*07:02 HEK reporter cells that express the indicated full length proteins; test: Full-length ORF validation of putative off-targets in C*07:02 HEK reporter cells; type: cell-based, human; conditions: co-culture with C*07:02 HEK reporter cells
Experimental: Hit that validated as targets using 90-mers were advanced to testing against full protein open reading frames (ORFs). ORFs for TLE3 and SLC6A13 were cloned from the ORFeome Collaboration Library (Horizon). LAMB4 intron retention ORF was synthesized (GenScript). These clones were cloned into lentiviral over-expression vectors and delivered to C*07:02 HEK reporter cells by transduction followed by selection with puromycin. Cells were seeded a day before co-culture with T cells expressing HN-32-41 at an E:T ratio of ˜2:1. After 4 hours, the co-cultures were harvested by pipetting and fluorescence of the reporter was detected using a CytoFLEX™ S instrument (Beckman Coulter). The PIGO ORF clone was purchased from Genscript in pcDNA3.1 overexpression vector and delivered by transient transfection using FuGENE6 reagent (Promega). C*07:02 HEK reporter cells were seeded to adhere overnigth, then transiently transfected with the PIGO ORF. The media was refreshed then cells expant overnight. Cells were co-cultured with T cells expressing HN-32-41 at an E:T of ˜2:1. After 4 hours, the co-cultures were harvested by pipetting and fluorescence of the reporter was detected using a CytoFLEX™ S instrument (Beckman Coulter).

[2] = system: primary cells from healthy HLA-C*07:02+ human donors; test: Co-culture with normal primary cells, IFNγ secretion; type: cell-based; conditions: pan T cells, non-pulsed primary cells vs MAGE-A1 peptide pulsed
Description: Primary normal cells from C*07:02+ donors that were expanded, confirmed to maintain differentiation states, and frozen were obtained (Lonza). Tested samples include: Human umbilical vein endothelial cells (HUVEC (CC-2517)), lung small airway epithelial cells (SAEC (CC-2547)) and lung bronchial-tracheal epithelial cells (NHBE (CC-2540)).
Prior to co-culture assays, primary normal cells were thawed, washed, resuspended in RPMI media supplemented with IL-2, IL-7, and IL-15 and seeded in 96-well flat-bottom culture plates at a density of 200,000 cells/well and allowed to rest for 4 hours. Cells were pulsed with MAGE-A1 peptide for 1-2 hours or left un-pulsed in their respective media. HN-32-41 or untransduced (NTD) T cells were then added at a density of 100,000 cells/well in complete T cell media. 24 hours post co-culture, supernatants were collected and frozen at −80° C.). Supernatants were thawed and analyzed for IFN-γ levels by loading on a Simple Plex Human IFN-gamma (3rd Gen) Cartridge (ProteinSimple, San Jose, Calif.) using the Ella™ instrument.
For flow cytometry analysis (Cytoflex S™ instrument, Beckman Coulter), cell pellets were washed with FACS buffer (PBS, 0.5% BSA, 2 mM EDTA) and stained for activation-induced markers, including PE-conjugated anti-CD137 (Miltenyi), AF647-conjugated anti-CD69 (Biolegend), and BV421-conjugated anti-CD8 (BioLegend).

LAMB4-IR peptide = test: Peptide validation of off-target with dilutions of cross-reactive peptide; type: cell-based, human; conditions: LAMB4-IR peptide below 2,000 ng/mL
Experimental: MHC-Flurry (O'Donnell et al. (2020) Cell Systems 42-48.e7) was used to predict peptides from LAMB4-IR with high-affinity binding to C*07:02. Predicted high-binding peptides were synthesized (GenScript). Monoallelic C*07:02 HEK293T reporter cells were pulsed with serial dilutions 0-20,000 ng/ml of the top peptide candidate for 1 hour and then co-cultured with TCR-transduced T cells (HN-32-41) at an E:T ratio of ˜2:1. After 4 hours, the cultures were harvested by pipetting and fluorescence of the reporter was detected using a CytoFLE.X™ S instrument (Beckman Coulter).

[3] = system: cancer cells that express MAGEA1; test: T cell recognition assay on cancer cell lines; type: cell-based, human; conditions: IFNγ release, CD137/CD69 double-positive staining
Experimental: To detect reactivity to cancer cell lines, wild-type cancer cell lines were seeded in a 96-well flat bottom plate and rested overnight at 37° C. in 5% CO2. On the following day, T cells were thawed, washed in complete RPMI-1640 medium, and added to the wells for an effector to target (E:T) ratio of 1:1 for INFγ measurement or 1:4 for flow cytometry analysis of activation-induced markers. The co-culture was incubated overnight. Cells were then harvested by pipetting, transferred to V-bottom 96-well plates, and centrifuged at 2,000 rpm for 2 minutes. The supernatant was collected for IFNγ measurement using a human IFNγ 3rd generation single-plex assay (Protein Simple). For flow cytometry analysis (Cytoflex S™ instrument, Beckman Coulter), cell pellets were washed with FACS buffer (PBS, 0.5% BSA, 2 mM EDTA) and stained for activation-induced markers, including PE-conjugated anti-CD137 (Miltenyi), AF647-conjugated anti-CD69 (Biolegend), and BV421-conjugated anti-CD8 (BioLegend).
Cancer cell lines were purchased from ATCC (Manassas, Vα.) and HEK293T cells were originally from Takara Bio (Shiga, Japan). All media were supplemented with […], except U266B1 which required 15% FBS, and 1% penicillin and incubated at 37° C. in 5% CO2. A101D (high MAGE-A1 expresing cells; TPM: 359), A2058 (medium MAGE-A1 expresing cells; TPM: 128), HS294T, and HEK293T cells were maintained in complete DMEM. SK-MEL-5 was cultured in complete EMEM, whereas U266B1, NCIH1437 and 786-0 required complete RPMI. Untransduced cancer cells were maintained in preparation for the T cell recognition assay, and 10^6 cells of each cell line were introduced with Incucyte® NucLight™ Red lentivirus reagent (Sartorius, Gottingen, Germany) Positively-labeled cells were selected using 1.5 ug/mL of puromycin over 72 hours.

B1: TCR 32-41: T cell receptor recognizing MAGEA1 epitope presented by HLA-C*07:02; alpha TRAV27/TRAJ52, beta TRBV12-4/TRBJ1-4; wild type, HM and MGTM sequences listed (protein)
TCR alpha: QLLEQSPQFLSIQEGENLTVYCNSSSVFSSLQWYRQEPGEGPVLLVTVVTGGEVKKLKRLTFQFGDARKDSSLHITAAQPGDTGLYLCAGDESISYGKLTFGQGTILTVHPNIQNPEPAVYQLKDPRSQDSTLCLFTDFDSQINVPKTMESGTFITDKCVLDMKAMDSKSNGAIAWSNQTSFTCQDIFKETNATYPSSDVPCDATLTEKSFETDMNLNFQNLLVMVLRILLLKVAGFNLLMTLRLWSS
TCR beta: DAGVIQSPRHEVTEMGQEVTLRCKPISGHDYLFWYRQTMMRGLELLIYFNNNVPIDDSGMPEDRFSAKMPNASFSTLKIQPSEPRDSAVYFCASSFLGWNEKLFFGSGTQLSVLEDLRNVTPPKVSLFEPSKAEIANKQKATLVCLARGFFPDHVELSWWVNGKEVHSGVCTDPQAYKESNYSYCLSSRLRVSATFWHNPRNHFRCQVQFHGLSEEDKWPEGSPKPVTQNISAEAWGRADCGITSASYQQGVLSATILYEILLGKATLYAVLVSTLVVMAMVKRKNS
reactivity to putative off-targets as full-length proteins (activation of the reporter, % IFP) [1]: no activation of the reporter, measured as % IFP, except for LAMB4-IR | reactivity to putative off-targets as full-length proteins (activation of the reporter, % IFP) ([1]; listed as TCR41): did not appreciably react with cells expressing putative off-targets | reactivity to normal human cells (IFNγ secretion in culture supernatants) [2]: does not show reactivity to normal human cells | reactivity to normal human cells (IFNγ secretion in culture supernatants) ([2]; listed as TCR41): did not react with healthy human primary cells | reactivity to cross-reactive off-target peptide (LAMB4-IR peptide): poor reactivity | recognition of cancer cells [3]: recognize cancer cells that express MAGEA1 | recognition of cancer cells ([3]; listed as TCR 41): recognize
